According to patent EP4778535A1 (Akeso Biopharma Co., Ltd., dated 2026):

Biological target: T1, human TIGIT-hFc (human, UniProt Q495A1 22-141)
T1 sequence (looked up): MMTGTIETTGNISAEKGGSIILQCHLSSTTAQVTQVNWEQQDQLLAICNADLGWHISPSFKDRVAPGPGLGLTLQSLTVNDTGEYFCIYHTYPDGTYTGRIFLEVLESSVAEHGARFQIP
Test: indirect ELISA screen of hybridomas with human TIGIT-hFc as antigen

binding result: binds
B1: 26B12 (antibody, V domains shown)
VH: EVQLQESGPGLVKPSQSLSLTCTVTGHSFTSDYAWNWIRQFPGNRLEWMGYISYSDSTNYNPSLKSRISITRDTSKNQFFLQMNSVTTEDTATYYCARLDYGNYGGAMDYWGQGTSVTVSS
VL: DIVLTQSHEFMSTSLRDRVSITCKSSQHVSTAVAWYQQKPGQSPKLLIYSASYRYTGVPDRFTGSGSGTDFTFTISSVKAEDLAVYYCQQHYITPWTFGGGTKLEIK
notes: Murine monoclonal antibody from a hybridoma; also called anti-TIGIT antibody 26B12; monoclonal antibody secreted by hybridoma cell line LT019
